Measurements as given in the RNAGym collection of RNA variant scans (doi:10.7554/elife.80360).

B1: HDV Ribozyme (parent)
chain: GGCCGGCAUGGUCCCAGCCUCCUCGCUGGCGCCGGCUGGGCAACAUUCCGAGGGGACCGUCCCCUCGGUAAUGGCGAAUGGGACCCA

Variants of: B1
Assay: self-cleavage, relative activity (ratio to wild type); higher = more cleavage; co-transcriptional

Variant	self-cleavage
CGCCGGCAUGGUCCCAGCCUCCUCGCUGGCGCCGGCUGGGCAACACUCCGAGGGGACCGUCCCCUCGGUAAUGGCGAAUGGGACCCA [G1C U46C]	0.229
CGCCGGCAUGGUCCCAGCCUCCUCGCUGGCGCCGGCUGGGCAACAUUCCGAGGGUACCGUCCCCUCGGUAAUGGCGAAUGGGACCCA [G1C G55U]	0.203
CGCCGGCAUGGUCCCAGCCUCCUCGCUGGCGCCGGCUGGGCAACAUUCCGAGGGCACCGUCCCCUCGGUAAUGGCGAAUGGGACCCA [G1C G55C]	0.214
UGCCGGCAUGGUCCCAGCCUCCUCGCUGGCGCCGGCUGGGCAACAUUCCGAGGGGACCGUCCCCUCGGUAAUGGCGAAUGGGACCCA [G1U]	0.391
CGCCGGCAUGGUCCCAGCUUCCUCGCUGGCGCCGGCUGGGCAACAUUCCGAGGGGACCGUCCCCUCGGUAAUGGCGAAUGGGACCCA [G1C C19U]	0
CGCCGGCAUGGUCCCAGCCUCCUCGCUGGCGCCGGCUAGGCAACAUUCCGAGGGGACCGUCCCCUCGGUAAUGGCGAAUGGGACCCA [G1C G38A]	0
CGCCGGCAUGGUCCCAGCCUCCUCGCUGGCGCCGGCUGAGCAACAUUCCGAGGGGACCGUCCCCUCGGUAAUGGCGAAUGGGACCCA [G1C G39A]	0.203
CGCCGGCAUGGUCCCAGCCUCCUCGCUGGCGCCGGCUGUGCAACAUUCCGAGGGGACCGUCCCCUCGGUAAUGGCGAAUGGGACCCA [G1C G39U]	0.116
CGCCGGCAUGGUCCCAGUCUCCUCGCUGGCGCCGGCUGGGCAACAUUCCGAGGGGACCGUCCCCUCGGUAAUGGCGAAUGGGACCCA [G1C C18U]	0.0437
CGCCGGCAUGGUCCCAGACUCCUCGCUGGCGCCGGCUGGGCAACAUUCCGAGGGGACCGUCCCCUCGGUAAUGGCGAAUGGGACCCA [G1C C18A]	0.123
CGCCGGCAUGGUCCCAGCCUCCUCGCUGGCGCCGGCUGGGCAACAUACCGAGGGGACCGUCCCCUCGGUAAUGGCGAAUGGGACCCA [G1C U47A]	0.256
CGCCGGCAUGGUCCCAGCCUCCUCGCUGGCGCCGGCUGGGCAACAUUCCGAGGGGACCGUCCCCUCGGUAAUGGCGUAUGGGACCCA [G1C A77U]	0
CGCCGGCAUGGUCCCAGCCUCCUCCCUGGCGCCGGCUGGGCAACAUUCCGAGGGGACCGUCCCCUCGGUAAUGGCGAAUGGGACCCA [G1C G25C]	0
CGCCGGCAUGGUCCCAGCCUCCUCGCUGGCGCCGGCUGGGCAACAUUCCGAGGGGAACGUCCCCUCGGUAAUGGCGAAUGGGACCCA [G1C C57A]	0.284
UGCCGGCAUGGUCCCAGCCUCCUCGCUGGCGCCGGCUGGGCAACAUUCCGAGGGGACCGUCCCCUCGGUAAUGGCGUAUGGGACCCA [G1U A77U]	0.146
CGCCGGCAUGGUCUCAGCCUCCUCGCUGGCGCCGGCUGGGCAACAUUCCGAGGGGACCGUCCCCUCGGUAAUGGCGAAUGGGACCCA [G1C C14U]	0.213
CGCCGGCAUGGUCCCAGCCUCCUCGCUGGCACCGGCUGGGCAACAUUCCGAGGGGACCGUCCCCUCGGUAAUGGCGAAUGGGACCCA [G1C G31A]	0.0302
CGCCGGUAUGGUCCCAGCCUCCUCGCUGGCGCCGGCUGGGCAACAUUCCGAGGGGACCGUCCCCUCGGUAAUGGCGAAUGGGACCCA [G1C C7U]	0.0475
CGCCGGAAUGGUCCCAGCCUCCUCGCUGGCGCCGGCUGGGCAACAUUCCGAGGGGACCGUCCCCUCGGUAAUGGCGAAUGGGACCCA [G1C C7A]	0.0405
CGCCGGCAUGGUCCCAGCCUCCUCGCUGGCGCCGGCUGGGCAACAUUCCGAGGGGACCGUCCCCUCGGUAAUGGCCAAUGGGACCCA [G1C G76C]	0.237
CGCCGGCAUGGUCCCAGCCUCCUCGCUGGCGCCGGCUGGGCAACAUUCCGAGGGGACCGGCCCCUCGGUAAUGGCGAAUGGGACCCA [G1C U60G]	0.0594
CGCCUGCAUGGUCCCAGCCUCCUCGCUGGCGCCGGCUGGGCAACAUUCCGAGGGGACCGUCCCCUCGGUAAUGGCGAAUGGGACCCA [G1C G5U]	0.175

Variant	self-cleavage
UGCCGGCAUGGUCCCAGCCUCCUCGCUGGCGCCGGCUGGGCAACAUUCCGAGGGGACCGUCCCCUCGGUAAUGGCGAAUGGGUCCCA [G1U A83U]	0.358
CGCCGGCAAGGUCCCAGCCUCCUCGCUGGCGCCGGCUGGGCAACAUUCCGAGGGGACCGUCCCCUCGGUAAUGGCGAAUGGGACCCA [G1C U9A]	0.0978
CGCCGGCAUGGUCCCAGCCUCCUCGCUGGCGCCGUCUGGGCAACAUUCCGAGGGGACCGUCCCCUCGGUAAUGGCGAAUGGGACCCA [G1C G35U]	0.155
CGCCGGCAUGGUCCCAGCCUCCUCGCUGGCGCCGGCUGGGCAACAUUGCGAGGGGACCGUCCCCUCGGUAAUGGCGAAUGGGACCCA [G1C C48G]	0.346
CGCCGGCAUGGUCCCAGCCUCCUCGCUGGCGCCGGCUGGGCAACCUUCCGAGGGGACCGUCCCCUCGGUAAUGGCGAAUGGGACCCA [G1C A45C]	0.145
CGCCGACAUGGUCCCAGCCUCCUCGCUGGCGCCGGCUGGGCAACAUUCCGAGGGGACCGUCCCCUCGGUAAUGGCGAAUGGGACCCA [G1C G6A]	0.0554
CGCCGGCAUGGUCCCAGCCUCCUCGCUGGCGCCGGCUGGGCAACAUUCCGAGAGGACCGUCCCCUCGGUAAUGGCGAAUGGGACCCA [G1C G53A]	0.193
UGCCGGCAUGGUCCCAGCCUCCUCGCUGGCGCCGGCUGGGCAACAUUCCGAGGGGACCGUCCCCUCGGUACUGGCGAAUGGGACCCA [G1U A71C]	0.297
UGCCGGCUUGGUCCCAGCCUCCUCGCUGGCGCCGGCUGGGCAACAUUCCGAGGGGACCGUCCCCUCGGUAAUGGCGAAUGGGACCCA [G1U A8U]	0.388
UGCCGGCGUGGUCCCAGCCUCCUCGCUGGCGCCGGCUGGGCAACAUUCCGAGGGGACCGUCCCCUCGGUAAUGGCGAAUGGGACCCA [G1U A8G]	0.426
UGCCGGCCUGGUCCCAGCCUCCUCGCUGGCGCCGGCUGGGCAACAUUCCGAGGGGACCGUCCCCUCGGUAAUGGCGAAUGGGACCCA [G1U A8C]	0.415
CGCCGGCAUGGUCCCAGCCACCUCGCUGGCGCCGGCUGGGCAACAUUCCGAGGGGACCGUCCCCUCGGUAAUGGCGAAUGGGACCCA [G1C U20A]	0
CGCCGGCAUGGUCCCAGCCUCCUCGCUGGCGCCGGCUGGGCAACAUUCCGAGGGGACCGUCCACUCGGUAAUGGCGAAUGGGACCCA [G1C C63A]	0.201
CGCCGGCAUGGUCCCAGCCUCCUCGCUGGCGCCGGCUGGGCAACAUUCCGAGGGGACCGUCCGCUCGGUAAUGGCGAAUGGGACCCA [G1C C63G]	0.0639
CGCCGGCAUGUUCCCAGCCUCCUCGCUGGCGCCGGCUGGGCAACAUUCCGAGGGGACCGUCCCCUCGGUAAUGGCGAAUGGGACCCA [G1C G11U]	0.115
CGCCGGCAUGGUCCCAGCCUCCUCGCUGGCGCCGGCUGGGCAACAUUCCGAGGGGACCGUCCCCUCGGUAAUGGCGAAUGGGACCCG [G1C A87G]	0.0712
CGCCGGCAUGGUCCCAGCCUCCUCGUUGGCGCCGGCUGGGCAACAUUCCGAGGGGACCGUCCCCUCGGUAAUGGCGAAUGGGACCCA [G1C C26U]	0.0898
CGCCGGCAUGGUCCCAGCCUCCUCGCUGGCGCCGGCAGGGCAACAUUCCGAGGGGACCGUCCCCUCGGUAAUGGCGAAUGGGACCCA [G1C U37A]	0
CGCCGGCAUGGUCCCAGCCUCCUCGCUGGCGCCGGCUGGGCAACAUUCCGAGGGGACCGUCCCCUCGGUAACGGCGAAUGGGACCCA [G1C U72C]	0.111
CGCCGGCAUGGUCCCAGCCUCCUCGCUGGCGCCGGCUGGGCAACAUUCCGAGGGGACCGUCCCCUCGGUAAAGGCGAAUGGGACCCA [G1C U72A]	0.32
CGCCGGCAUGGUCCCAGCCUCCUCGCUGGCGCCGGCUGGGCAACAUUCCGAGGGGACCGUCCCCUCGGUAAUGGCGAAUGGGCCCCA [G1C A83C]	0.185
CGCCGGCAUGGUCCCAGCCUCCUCGCUUGCGCCGGCUGGGCAACAUUCCGAGGGGACCGUCCCCUCGGUAAUGGCGAAUGGGACCCA [G1C G28U]	0.107

Variant	self-cleavage
CGCCGGCAUGGUCCCAGCCUCCUCGCUGGCGCAGGCUGGGCAACAUUCCGAGGGGACCGUCCCCUCGGUAAUGGCGAAUGGGACCCA [G1C C33A]	0.222
CGCCGGCAUGGUCCCAGCCUCCUCGCUGGCGACGGCUGGGCAACAUUCCGAGGGGACCGUCCCCUCGGUAAUGGCGAAUGGGACCCA [G1C C32A]	0
CGCCGGCAUGGUCCCAGCCUCCUCGCUGGCGUCGGCUGGGCAACAUUCCGAGGGGACCGUCCCCUCGGUAAUGGCGAAUGGGACCCA [G1C C32U]	0.192
CGCCGGCAUGGUCCCAGCCUCCUCGCUGGCGCCGGCUGGGCAACAUUCCGAGGGGGCCGUCCCCUCGGUAAUGGCGAAUGGGACCCA [G1C A56G]	0.356
CGCCGGCAUGGUCCCAGCCUCCUCGCUGGCGCCGGCUGGGCAACAUUCCGAGGGGCCCGUCCCCUCGGUAAUGGCGAAUGGGACCCA [G1C A56C]	0.172
CGCCGGCAUGGUGCCAGCCUCCUCGCUGGCGCCGGCUGGGCAACAUUCCGAGGGGACCGUCCCCUCGGUAAUGGCGAAUGGGACCCA [G1C C13G]	0.0791
CGCCGGCAUGGUCCCAGCCUCCUCGCUGGCGCCGGCUGGGCAACAUUCCGAGGGGACCGUCCCCUCGGUAAUGGCGAUUGGGACCCA [G1C A78U]	0.0755
CGCCGGCAUGGUCCCAGCCUCCUCGCUGGCGCCGGCUGGGCAACAUUCCGAGGGGACCGUCCCCUCGUUAAUGGCGAAUGGGACCCA [G1C G68U]	0.17
UGCCGGCAUGGUCCCAGCCUCCUCGCUGGCGCCGGCUGGGCAACAUUCCGAGGGGACCGUCCCCUCGGUAAUGGCGACUGGGACCCA [G1U A78C]	0.293
UGCCGGCAUGGUCCCAGCCUCCUCGCUGGCGCCGGCUGGGCAACAUUCCGAGGGGACCGUCCCCUCGGUAAUGGCGAUUGGGACCCA [G1U A78U]	0.415
CGCCGGCAUGGUCCCAGCCUCCUCGCUGGCGCCGGCUGGGCAACAUUCCGAGGGGACCGUCCCCUCGGAAAUGGCGAAUGGGACCCA [G1C U69A]	0.0875
CGCCGGCAUGGUCCCAGCCUCCUCGCUGGCGCCGGCUGGGCAACAUUCCGAGGGGACCGUCCCCUCGGUAAUCGCGAAUGGGACCCA [G1C G73C]	0.142
CGCCGGCAUGGUCCCAGCCUCCUCGCUGGCGCCGGCUGGGCAACAUUCCGAGGGGACCGUACCCUCGGUAAUGGCGAAUGGGACCCA [G1C C61A]	0.208
CGCCGGCAUGGUCCCAGCCUCCUCGCUGGCGCCGGGUGGGCAACAUUCCGAGGGGACCGUCCCCUCGGUAAUGGCGAAUGGGACCCA [G1C C36G]	0.0437
CGCCGGCAUGGUCCCAGCCUCCUCGCUGGAGCCGGCUGGGCAACAUUCCGAGGGGACCGUCCCCUCGGUAAUGGCGAAUGGGACCCA [G1C C30A]	0.104
CGCUGGCAUGGUCCCAGCCUCCUCGCUGGCGCCGGCUGGGCAACAUUCCGAGGGGACCGUCCCCUCGGUAAUGGCGAAUGGGACCCA [G1C C4U]	0.0489
CGCCGGCAUGGUCCCAGCCUCCUCGCUGGCGCCCGCUGGGCAACAUUCCGAGGGGACCGUCCCCUCGGUAAUGGCGAAUGGGACCCA [G1C G34C]	0.0594
CGACGGCAUGGUCCCAGCCUCCUCGCUGGCGCCGGCUGGGCAACAUUCCGAGGGGACCGUCCCCUCGGUAAUGGCGAAUGGGACCCA [G1C C3A]	0.234
CGCCGGCAUGGUCCCAGCCUCCUCGCUGGCGCCGGCUGGGCAACAUUCCGAGGGGACCGUCCCCUCGGUUAUGGCGAAUGGGACCCA [G1C A70U]	0.115
CGCCGGCAUGGUCCCAGCCUCCUCGCUGGCGCCGGCUGGGCAACAUUCCGAGGGGACCGUCCCCUCGGUGAUGGCGAAUGGGACCCA [G1C A70G]	0.453
